# According to patent US20200206198A1, “CFTR CHANNEL ACTIVATOR FOR USE IN THE TREATMENT AND/OR PREVENTION OF GLUTEN SENSITIVITY CONDITIONS” (priority 2017, published 2020):
# Key:
# PM-associated CFTR = target: T1, PM-associated CFTR (Homo sapiens, UniProt P13569); assay: CFTR plasma membrane disposal in Caco-2 cells (membrane fractions); type: cell-based
# T1 construct: Immunoprecipitations of endogenous proteins were performed on 500 μg of lysates from Caco-2 cells; host or cells: Caco-2, T84
# Description: (§1) Human colon adenocarcinoma-derived Caco-2 and T84 cells were obtained from the ATCC. Cells were maintained in T25 flask in Modified Eagle Medium (MEM) for Caco-2, or Ham's F12+DMEM (1:1) for T84, supplemented with 10% fetal bovine serum (FBS), 2 mM Glutamine+1% Non Essential Amino Acids (NEAA) and the antibiotics penicillin\streptomycin (100 units/ml) (all reagents from Lonza) (Luciani, A., et al. 2010. Cells were grown in Transwells (Corning, 3470 or 3460) under the normal condition (Luciani, A., et al. 2012). Briefly, 8×10^4 or 5×10^5 cells were seeded in 6.5-mm diameter or 12-mm diameter, respectively, and grown until the RT reached 800 to 1,200 Ω·cm2. Transwells with a pore size of 0.4 μm were used. Medium in both the apical and basolateral chambers was changed every other day. Cells were treated with 20 μg/ml of either α-gliadin peptide P31-43 or […] or scrambled PGAV or modified P31-43 either biotin-tagged or not, for different time point (from 1 h short challenge up to 24 h). Cells were also treated with 50 or 100 μg/ml of P57-68 or PGAV peptides for 3 h. Caco-2 or T84 cells were also treated with: CFTR potentiators VX-770 (10 μM) or VX-532 (20 μM) (Selleck chemicals) or Genistein (10 μM) (Sigma-Aldrich) or in presence or absence of CFTR inhibitor172 (CFTRinh172, 20 μM) or 3-methyl-adenine (3-MA, 20 μM) (Calbiochem), Z-DON (20 nM, Zedira) or BAPTA-AM (10 μM, Calbiochem).
# (§2) The whole lysate or membrane fraction proteins of cell lines and mice intestine homogenates were obtained from treated and untreated cells or mice as described. The equal amount of protein were resolved by SDS-PAGE gel and blotted with antibodies against: SQSTM1, (Sigma Aldrich, 108k4767) 1:1000, PPARγ (Santa Cruz Biotechnology, sc7273) 1:500, BECN1 (Abcam, ab58878) 1:1000, CFTR clone M3A7 (Abcam, ab4067) 1:500, phospho-ERK1/2 (php42/44, Cell Signaling Technology, #91101) 1:1000, UVRAG (Santa Cruz Biotechnology sc8215) 1:1000, NHERF-1 (BD, 611161) 1:1000, EZRIN (BD, 610603) 1:1000, hVps34 (SigmaV9764) 1:300, biotin (Abcam, ab1227) 1:2000, PKAr2a (BD, 610625) 1:500, Ubiquitin (Cell Signaling clone P4D1, #3936) 1:1000, CHIP (Calbiochem PC711) 1:500, Caspase-1 p10 (M-20) (Santa Cruz Biotechnology, sc-514) 1:200, NLRP3 (Abcam, ab4207), 1:500, IDO1 (monoclonal; cv152) 1:1000^[80], used as primary antibodies. Normalization was performed by probing the membrane with anti-β-actin (Cell Signaling, #4970) 1:1000, anti-Gapdh (Sigma-Aldrich, G8795) 1:1000 and anti-flottilin (Abcam ab15148) 1:1000 antibodies. Immunoprecipitations of endogenous proteins were performed on 500 μg of lysates from Caco-2 cells. The proteins were incubated for 12-18 h at 4° C. with 10 ug\ml of specific antibody followed by the addition of Protein A/G-agarose beads for 4 h at 4° C. The beads were then washed three times with lysis buffer and Laemmli's sample buffer was added to the samples. The membranes were then blotted with: CFTR clone CF3 (Abcam, ab2784) 1:1000, TG2 (clone CUB7402; NeoMarkers) 1:1000, CHIP (Calbiochem PC711) 1:500, Ubiquitin (Cell Signaling clone P4D1 3936), isopeptide (Abcam 422) 1:1000, PKAR2 (BD 610625) 1:500.
# Protein from membrane fractionation were obtained as described. Cells were homogenized with a PotterElvehjem pestle and centrifuged at 2300×g for 15 min at 4° C. […]
# CFTR = target: T2, CFTR (Homo sapiens, UniProt P13569); assay: Co-immunoprecipitation of biotinylated peptides with CFTR in Caco-2 cells; type: cell-based
# T2 construct: Immunoprecipitations of endogenous proteins were performed on 500 μg of lysates from Caco-2 cells; host or cells: Caco-2, T84
# Description: Human colon adenocarcinoma-derived Caco-2 and T84 cells were obtained from the ATCC. Cells were maintained in T25 flask in Modified Eagle Medium (MEM) for Caco-2, or Ham's F12+DMEM (1:1) for T84, supplemented with 10% fetal bovine serum (FBS), 2 mM Glutamine+1% Non Essential Amino Acids (NEAA) and the antibiotics penicillin\streptomycin (100 units/ml) (all reagents from Lonza) (Luciani, A., et al. 2010. Cells were grown in Transwells (Corning, 3470 or 3460) under the normal condition (Luciani, A., et al. 2012). Briefly, 8×10^4 or 5×10^5 cells were seeded in 6.5-mm diameter or 12-mm diameter, respectively, and grown until the RT reached 800 to 1,200 Ω·cm2. Transwells with a pore size of 0.4 μm were used. Medium in both the apical and basolateral chambers was changed every other day. […] Cells were also treated with 50 or 100 μg/ml of P57-68 or PGAV peptides for 3 h. Caco-2 or T84 cells were also treated with: CFTR potentiators VX-770 (10 μM) or VX-532 (20 μM) (Selleck chemicals) or Genistein (10 μM) (Sigma-Aldrich) or in presence or absence of CFTR inhibitor172 (CFTRinh172, 20 μM) or 3-methyl-adenine (3-MA, 20 μM) (Calbiochem), Z-DON (20 nM, Zedira) or BAPTA-AM (10 μM, Calbiochem).
# For detection of complex with biotnylated-P31-43 or immune-complex of glutamime-lysine bonds, the beads were resolved in non-reducing and non-denaturating conditions, and then blotted with Streptavidin-HRP (Sigma 52438) 1:3000 or anti-biotin (Abcam ab2103) 1:2500 and anti-isopeptide (Abcam 422) 1:1000.
# The separation of endosomal fractions was performed as described^9 from treated and untreated cells. Protein of endosomal fraction were resolved by SDS-Page and blotted with primary antibodies against Rab-5(Abcam 18211) 1:500, Rab-7(Abcam 77993) 1:500, EEA-1 (Abcam 2900) 1:500, TG2 or CFTR. EEA-1 was used as early endosome marker. For detection of complex with biotnylated-P31-43, the beads were resolved in non-reducing and non-denaturating conditions, and then blotted with Streptavidin-HRP (Sigma S2438) 1:3000 or anti-biotin (Abcam ab2103) 1:2500.
# Caco-2 cells = assay: Endosomal trafficking proteins in Caco-2 cells (immunoblot, endosomal fractions); type: cell-based, human
# Description: as §1
# as §2, with “The beads were then washed three times with lysis buffer and Laemmli's sample buffer was added to the samples. The membranes were then blotted with: CFTR clone CF3 (Abcam, ab2784) 1:1000, TG2 (clone CUB7402; NeoMarkers) 1:1000, CHIP (Calbiochem PC711) 1:500, Ubiquitin (Cell Signaling clone P4D1 3936), isopeptide (Abcam 422) 1:1000, PKAR2 (BD 610625) 1:500.” left out
# T2 sequence (P13569 whole entry): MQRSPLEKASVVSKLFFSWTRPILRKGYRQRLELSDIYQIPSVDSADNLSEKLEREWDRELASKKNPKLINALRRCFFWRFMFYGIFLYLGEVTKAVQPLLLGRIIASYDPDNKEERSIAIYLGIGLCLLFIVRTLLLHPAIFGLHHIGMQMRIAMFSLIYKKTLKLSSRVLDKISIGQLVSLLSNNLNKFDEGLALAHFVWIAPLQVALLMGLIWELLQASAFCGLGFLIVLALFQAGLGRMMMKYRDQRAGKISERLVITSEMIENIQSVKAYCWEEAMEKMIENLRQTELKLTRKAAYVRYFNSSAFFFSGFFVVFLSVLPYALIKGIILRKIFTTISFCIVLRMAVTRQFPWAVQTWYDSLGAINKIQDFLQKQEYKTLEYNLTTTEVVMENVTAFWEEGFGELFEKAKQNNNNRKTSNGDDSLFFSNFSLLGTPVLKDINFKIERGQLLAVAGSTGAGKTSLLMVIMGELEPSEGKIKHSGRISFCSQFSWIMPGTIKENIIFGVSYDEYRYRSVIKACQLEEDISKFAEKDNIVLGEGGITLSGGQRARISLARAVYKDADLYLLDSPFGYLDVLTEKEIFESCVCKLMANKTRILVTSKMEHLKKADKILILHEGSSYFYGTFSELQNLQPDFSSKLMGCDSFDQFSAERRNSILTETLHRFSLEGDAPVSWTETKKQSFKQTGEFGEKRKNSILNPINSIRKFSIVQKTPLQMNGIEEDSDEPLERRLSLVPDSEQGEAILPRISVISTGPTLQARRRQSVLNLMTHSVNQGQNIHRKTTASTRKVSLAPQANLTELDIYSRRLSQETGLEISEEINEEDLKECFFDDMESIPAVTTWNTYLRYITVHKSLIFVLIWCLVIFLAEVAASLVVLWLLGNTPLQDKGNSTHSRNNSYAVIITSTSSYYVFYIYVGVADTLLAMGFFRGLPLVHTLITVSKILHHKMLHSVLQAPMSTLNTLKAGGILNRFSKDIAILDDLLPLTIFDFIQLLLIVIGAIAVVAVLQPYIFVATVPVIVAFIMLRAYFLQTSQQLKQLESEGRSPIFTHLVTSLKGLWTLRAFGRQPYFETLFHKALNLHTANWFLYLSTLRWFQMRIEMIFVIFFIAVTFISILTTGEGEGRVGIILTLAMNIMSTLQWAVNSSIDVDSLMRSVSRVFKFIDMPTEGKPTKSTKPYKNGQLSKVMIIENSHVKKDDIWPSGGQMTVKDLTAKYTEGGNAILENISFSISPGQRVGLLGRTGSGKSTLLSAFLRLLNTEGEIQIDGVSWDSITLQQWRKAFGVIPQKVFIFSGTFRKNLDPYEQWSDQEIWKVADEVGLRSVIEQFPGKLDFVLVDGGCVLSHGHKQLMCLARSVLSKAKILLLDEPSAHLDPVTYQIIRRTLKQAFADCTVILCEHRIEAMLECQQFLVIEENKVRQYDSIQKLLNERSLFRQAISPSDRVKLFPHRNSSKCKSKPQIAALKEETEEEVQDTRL
# T1 sequence (P13569 whole entry): as above
Molecule,effect on P31-43-induced reduction of PM-associated CFTR (PM-associated CFTR),effect on co-immunoprecipitation between P31-43 and CFTR (CFTR),"effect on P31-43-induced reduction of BECN1, hVps34, UVRAG, Rab5 and Rab7 (Caco-2 cells; lost if 3-MA or CFTR inhibitor added)",CHIP-mediated CFTR ubiquitilation (PM-associated CFTR),abundance of plasma membrane-associated SQSTM1/p62 (PM-associated CFTR),overall abundance of PM-associated CFTR (PM-associated CFTR; after 24 h of challenge),presence in CFTR immunoprecipitates from early endosomal protein fractions (CFTR),interaction (co-immunoprecipitation) with CFTR (CFTR; 1 h with biotinylated peptides),co-immunoprecipitation with CFTR in clathrin+ EEA1− plasma membrane protein fractions (CFTR; after 5 min incubation),Rab5 and Rab7 levels in endosomal protein fractions (Caco-2 cells),"total cellular abundance of BECN1, hVps34 and UVRAG (Caco-2 cells)"
"CC(C)(C)c1cc(C(C)(C)C)c(NC(=O)c2c[nH]c3ccccc3c2=O)cc1O [VX-770, N-(2,4-di-tert-butyl-5-hydroxyphenyl)-4-oxo-1,4-dihydroquinoline-3-carboxamide]",counteracted,prevented the co-immunoprecipitation between P31-43 and CFTR,counteracted,–,–,–,–,–,–,–,–
"α-gliadin peptide LGQQQPFPPQQPY (SEQ ID 1), induces an enterocyte stress response (P31-43 sequence of alpha-gliadin)",–,–,–,promoted,increased the abundance,reduction of the overall abundance of PM-associated CFTR,revealed the presence of biotinylated P31-43,co-immunoprecipitated with CFTR,co-immunoprecipitated,decreased,reduced the total cellular abundance
